We go through 16 molecules from US20100280227A1 (Genentech, published 2010).

For assay [1], the target named is T1, variant human BR3-Fc fusion.
T1 construct: produced in CHO cells; also called vBR3-Fc; vhBR3-Fc
Put plainly: SPR, vBR3-Fc on chip.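 Further: Anti-BR3 antibodies passed over chip-bound BR3-Fc in PBS with 0.05% polysorbate 20, on and off rates fitted together globally to a 1:1 binding model.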 Background: In SPR one partner is held on a chip, and binding of the other changes the refractive index at the surface.
Protocol: After coupling, unoccupied sites on the chip were blocked by injecting 20 μl of 1M ethanolamine, pH 8.5. The running buffer was PBS containing 0.05% polysorbate 20. […] The binding surface was regenerated by injecting 20-30 μl of 10 mM glycine.HCl (pH 1.5). […] Data were analyzed using a 1:1 binding model using global fitting. The association and dissociation rate constants were fitted simultaneously (BIAevaluation software).
A high flow rate was used in order to minimize mass transport effects.

Assay [2] has as its target T2, human BR3 expressed on cells (human, UniProt Q96RJ3 1-184).
T2 construct: whole, on cells; also called BR3 on BJAB cells; cell surface BR3
Put plainly: BJAB cells, direct binding.
Protocol: Direct and competitive binding assays were performed as follows. For the direct binding assay, IgG antibody samples were serially diluted in cold assay buffer to concentrations ranging between 300-0.02 nM. Samples (100 μl) were added to the pelleted cells, and the plates were incubated for 45 min on ice. An additional 100 μl assay buffer was then added to each well, and the plates were centrifuged at 1200 rpm for 5 min at 4° C. After carefully aspirating the supernatant, the cells were washed two additional times with 200 μl assay buffer. An anti-mouse IgG Fc-HRP or goat anti-human IgG Fc-HRP, as appropriate, was diluted 1/10,000 in cold assay buffer was added (100 μl/well, Jackson ImmunoResearch, West Grove, Pa.), and the plates were incubated on ice for 45 min. Following two washes with 200 μl cold assay buffer, tetramethyl benzidine (TMB, Kirkegaard & Perry Laboratories, Gaithersburg, Md.) was added, and color was allowed to develop for 10 min. One hundred microliters 1 M H₃PO₄ was added to stop the reaction. The plates were then read on a microplate reader at 450 nm with a 620 nm reference. In the direct binding assay, the indicated concentrations of mAbs were added to BJAB cells and bound mAb was detected.

Assay [3] has as its target T3, human BR3 extracellular domain (human, UniProt Q96RJ3 1-61).
T3 construct: biotinylated where used as tracer; also called hBR3-ECD; BR3-ECD
Briefly: phage competition ELISA. In general terms: An ELISA detects its analyte on a solid surface through an enzyme-linked reagent.

In assay [4] the target is T4, mouse BR3 extracellular domain (mouse, UniProt Q9D8D0 1-64).
T4 construct: also called mBR3-ECD; mBR-ECD
T4 sequence: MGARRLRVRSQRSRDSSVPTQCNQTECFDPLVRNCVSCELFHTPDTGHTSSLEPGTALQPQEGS
Briefly: phage competition ELISA.

Assay [5] deals with T2, human BR3 expressed on cells. Briefly: BJAB cells, competition with biotin-BAFF.
Protocol: The diluted samples were added to the pelleted BJAB cells in 96 well plates as described above. After 45 min incubation on ice, the cells were washed twice with 200 μl cold assay buffer, and streptavidin-HRP (AMDEX, Amersham Biosciences, Piscataway, N.J.) diluted 1/5,000 in assay buffer was added (100 μl/well). The plates were incubated for a final 45 min on ice. After washing twice with cold assay buffer, color was developed using TMB, the reaction was stopped with H₃PO₄, and the plates were read as described above.
Assay [6] has as its target T3, human BR3 extracellular domain. Briefly: SPR, BR3 ECD on chip.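 Further: Anti-BR3 antibodies passed over the chip at high flow in PBS with 0.05% polysorbate 20, on and off rates fitted together globally to a 1:1 binding model.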
For assay [7] the target is unchanged. Briefly: SPR, IgG on chip, BR3 ECD in solution.

Usually Kd stands for the equilibrium constant for the complex coming apart. As usually defined, the EC50 is the midpoint of the concentration-response curve. Usually IC50 stands for the concentration at which inhibition is half-maximal. The low end stands for greater potency, the high end for weaker potency. One may read the koff as the rate constant with which the complex falls apart. Read a low koff as a long-lived complex. The term kon denotes the rate constant with which the complex forms.

B1: chimeric 9.1 IgG (antibody, V domains shown)
VH: EVKLVESGGGLVQPGGSLRLSCAISGFTVTAYYMSWVRQPPGKALEWLGFIRDKANGYTTEYNPSVKGRFTISRDNSQSIFYLQMNTLRAEDSATYYCAQVRRALDYWGQGTTVTVSA
VL: DIVMSQSPSSLAVSVGEKVTMSCKSSQSLLYSSNQNNYLAWYQQKPGQSPKLLIYWASTRESGVPDRFTGSGSGTDFTLTISSVKAEDLAVYYCQQYYTYPYTFGGGT
notes: also called Ch 9.1 IgG; ch 9.1
With B1, the Kd in assay [1] came to 170 pM. In assay [2], the midpoint of the response, the EC50, lay at 360 pM.

B2: V3-46s-13 phage clone (Fab, V domains shown)
VH: EVQLVESGGGLVQPGGSLRLSCAASGFTISSSSIHWVRQAPGKGLEWVAWVLPSVGFTDYADSVKGRFTISADTSKNTAYLQMNSLRAEDTAVYYCARRVCYNRLGVCAGGMDYWGQGTLVTVSS
VL: DIQMTQSPSSLSASVGDRVTITCRASEEIATAVAWYQQKPGKAPKLLIFAASYLFSGVPSRFSGSGSGTDFTLTISSLQPEDFATYYCQQSQVAPPTFGQGTKVEIK
Take B2: the IC50 in assay [3] is 80 pM; in assay [4], 713 pM.

B3: V3-46s IgG (antibody, V domains shown)
VH: EVQLVESGGGLVQPGGSLRLSCAASGFTISSSSIHWVRQAPGKGLEWVAWVLPSVGFTDYADSVKGRFTISADTSKNTAYLQMNSLRAEDTAVYYCARRVCYNRLGVCAGGMDYWGQGTLVTVSS
VL: DIQMTQSPSSLSASVGDRVTITCRASQDVSTAVAWYQQKPGKAPKLLIYSASFLYSGVPSRFSGSGSGTDFTLTISSLQPEDFATYYCQQSQISPPTFGQGTKVEIKR
notes: also called hV3-46S; HuV3-46s-IgG
In turn, B3 had an EC50 in assay [2] of 1800 pM. In assay [5], the concentration for half-maximal inhibition (IC50) stood at 1900 pM.

B4: V3-46s-33 phage clone (Fab, V domains shown)
VH: EVQLVESGGGLVQPGGSLRLSCAASGFTISSSSIHWVRQAPGKGLEWVAWVLPSVGFTDYADSVKGRFTISADTSKNTAYLQMNSLRAEDTAVYYCARRVCYNRLGVCAGGMDYWGQGTLVTVSS
VL: DIQMTQSPSSLSASVGDRVTITCRASEEISTAVAWYQQKPGKAPKLLIFSASYLYSGVPSRFSGSGSGTDFTLTISSLQPEDFATYYCQQSEVSPPTFGQGTKVEIK
Turning to B4, the IC50 turned out to be 100 pM in assay [3] and 724 pM in assay [4].

B5: V3-46s-34 phage clone (Fab, V domains shown)
VH: EVQLVESGGGLVQPGGSLRLSCAASGFTISSSSIHWVRQAPGKGLEWVAWVLPSVGFTDYADSVKGRFTISADTSKNTAYLQMNSLRAEDTAVYYCARRVCYNRLGVCAGGMDYWGQGTLVTVSS
VL: DIQMTQSPSSLSASVGDRVTITCRASEDISSAVAWYQQKPGKAPKLLIFSASFLFSGVPSRFSGSGSGTDFTLTISSLQPEDFATYYCQQSQVSPPTFGQGTKVEIK
For the molecule B5, the IC50 is 58 pM in assay [3] and 790 pM in assay [4].

B6: V3-46s-45 phage clone (Fab, V domains shown)
VH: EVQLVESGGGLVQPGGSLRLSCAASGFTISSSSIHWVRQAPGKGLEWVAWVLPSVGFTDYADSVKGRFTISADTSKNTAYLQMNSLRAEDTAVYYCARRVCYNRLGVCAGGMDYWGQGTLVTVSS
VL: DIQMTQSPSSLSASVGDRVTITCRASEDVSSAVAWYQQKPGKAPKLLIFAASYLFSGVPSRFSGSGSGTDFTLTISSLQPEDFATYYCQHSQVSPPTFGQGTKVEIK
Regarding B6, the results for the IC50 in assay [3] and in assay [4] were 121 pM and 370 pM, respectively.

B7: V3-46s-37 phage clone (Fab, V domains shown)
VH: EVQLVESGGGLVQPGGSLRLSCAASGFTISSSSIHWVRQAPGKGLEWVAWVLPSVGFTDYADSVKGRFTISADTSKNTAYLQMNSLRAEDTAVYYCARRVCYNRLGVCAGGMDYWGQGTLVTVSS
VL: DIQMTQSPSSLSASVGDRVTITCRASQDVATAVAWYQQKPGKAPKLLIFAASFLYSGVPSRFSGSGSGTDFTLTISSLQPEDFATYYCQQSQISPPTFGQGTKVEIK
Turning to B7, the figures for the half-maximal inhibitory concentration (IC50) in assay [3] and in assay [4] were 131 pM and 320 pM, respectively.

B8: V3-46s-31 phage clone (Fab, V domains shown)
VH: EVQLVESGGGLVQPGGSLRLSCAASGFTISSSSIHWVRQAPGKGLEWVAWVLPSVGFTDYADSVKGRFTISADTSKNTAYLQMNSLRAEDTAVYYCARRVCYNRLGVCAGGMDYWGQGTLVTVSS
VL: DIQMTQSPSSLSASVGDRVTITCRASQDIATSVAWYQQKPGKAPKLLIFAASYLFSGVPSRFSGSGSGTDFTLTISSLQPEDFATYYCQQSQVSPPTFGQGTKVEIK
Turning to B8, the values for the IC50 in assay [3] and in assay [4] were 120 pM and 342 pM, respectively.

B9: V3-46s-40 phage clone (Fab, V domains shown)
VH: EVQLVESGGGLVQPGGSLRLSCAASGFTISSSSIHWVRQAPGKGLEWVAWVLPSVGFTDYADSVKGRFTISADTSKNTAYLQMNSLRAEDTAVYYCARRVCYNRLGVCAGGMDYWGQGTLVTVSS
VL: DIQMTQSPSSLSASVGDRVTITCRASEEIATSVAWYQQKPGKAPKLLIFSASYLYSGVPSRFSGSGSGTDFTLTISSLQPEDFATYYCQQSQVSPPTFGQGTKVEIK
For the molecule B9, the IC50 in assay [3] was 164 pM; in assay [4], 530 pM.

B10: V3-46s-29 phage clone (Fab, V domains shown)
VH: EVQLVESGGGLVQPGGSLRLSCAASGFTISSSSIHWVRQAPGKGLEWVAWVLPSVGFTDYADSVKGRFTISADTSKNTAYLQMNSLRAEDTAVYYCARRVCYNRLGVCAGGMDYWGQGTLVTVSS
VL: DIQMTQSPSSLSASVGDRVTITCRASEEIATAVAWYQQKPGKAPKLLIFAASFLYSGVPSRFSGSGSGTDFTLTISSLQPEDFATYYCQQSEVSPPTFGQGTKVEIK
Consider B10, for which the IC50 in assay [3] came out at 80 pM; in assay [4], 550 pM.

B11: Hu2.1-30 IgG (antibody, V domains shown)
VH: EVQLVESGGGLVQPGGSLRLSCAASGDSITRGYWNWVRQAPGKGLEWVGYINYSGTTYYNPSLKSRFTISRDTSKNTFYLQMNSLRAEDTAVYYCANLNYYGAMDYWGQGTLVTVSS
VL: DIQMTQSPSSLSASVGDRVTITCRASESVDDYGISFMHWYQQKPGKAPKLLIYRASDLESGVPSRFSGSGSGTDFTLTISSLQPEDFATYYCQQTSKDPWTFGQGTKVEIKR
notes: humanized IgG; also called h2.1-30
Regarding B11, in assay [6], the equilibrium dissociation constant (Kd) is 17 pM, the koff is 4e-05 s⁻¹ and the on-rate constant (kon) was found to be 2.41e+06 M⁻¹ s⁻¹. In assay [2], this molecule came in with an EC50 of 110 pM. In assay [7], the Kd turned out to be 20 pM, the koff worked out at 7.6e-05 s⁻¹ and the kon is 3.57e+06 M⁻¹ s⁻¹. Moreover, the IC50 in assay [5] is 170 pM.

B12: Hu2.1-46 IgG (antibody, V domains shown)
VH: EVQLVESGGGLVQPGGSLRLSCAASGDSITRGYWNWVRQAPGKGLEWVGYINYSGTTYYNPSLKSRFTISRDTSKNTFYLQMNSLRAEDTAVYYCANSNFYGAMDYWGQGTLVTVSS
VL: DIQMTQSPSSLSASVGDRVTITCRASESVDDYGISFMHWYQQKPGKAPKLLIYRASDLESGVPSRFSGSGSGTDFTLTISSLQPEDFATYYCQQTSKDPWTFGQGTKVEIKR
notes: humanized IgG; also called h2.1-46
B12: in assay [6], binding was characterised by a dissociation constant (Kd) of 20 pM, the koff was found to be 4.5e-05 s⁻¹ and the kon came to 2.2e+06 M⁻¹ s⁻¹. In assay [1], this molecule registered a dissociation constant (Kd) of 41 pM, a dissociation rate constant (koff) of 3.96e-05 s⁻¹ and a kon of 978000 M⁻¹ s⁻¹. In assay [2], this molecule displayed a half-maximal effective concentration (EC50) of 110 pM. In assay [7], this molecule returned a dissociation constant Kd of 193 pM, a koff of 0.000432 s⁻¹ and a kon of 2.24e+06 M⁻¹ s⁻¹. The molecule also registered an IC50 in assay [5] of 190 pM.

B13: Hu2.1-94 IgG (antibody, V domains shown)
VH: EVQLVESGGGLVQPGGSLRLSCAASGDSITRGYWNWVRQAPGKGLEWVGYINYSGTTYYNPSLKSRFTISRDTSKNTLYLQMNSLRAEDTAVYYCATSHNTGEMDYWGQGTLVTVSS
VL: DIQMTQSPSSLSASVGDRVTITCRASESVDDYGISFMHWYQQKPGKAPKLLIYRASDLESGVPSRFSGSGSGTDFTLTISSLQPEDFATYYCQQTSKDPWTFGQGTKVEIKR
notes: humanized IgG; also called h2.1-94
Take B13: in assay [6], the Kd was found to be 37 pM, the off-rate (koff) turned out to be 6.6e-05 s⁻¹ and the kon is 1.77e+06 M⁻¹ s⁻¹. In addition, in assay [1], the equilibrium dissociation constant (Kd) worked out at 253 pM, the koff was 0.000121 s⁻¹ and the on-rate (kon) worked out at 477000 M⁻¹ s⁻¹. The molecule further returned an IC50 in assay [5] of 5100 pM.

B14: Hu9.1-88 IgG (antibody, V domains shown)
VH: EVQLVESGGGLVQPGGSLRLSCAASGFPVTGSYVSWVRQAPGKGLEWVGFIRDKANGYTTEYNPSVKGRFTISRDTSKNTLYLQMNSLRAEDTAVYYCAQVRRALDYWGQGTLVTVSS
VL: DIQMTQSPSSLSASVGDRVTITCKSSQSLLYSSNQNNYLAWYQQKPGKAPKLLIYWASTRESGVPSRFSGSGSGTDFTLTISSLQPEDFATYYCQQYYTYPYTFGQGTKVEIKR
notes: humanized IgG; also called h9.1-88
Consider B14, for which the Kd is 25 pM in assay [6], 200 pM in assay [1] and 911 pM in assay [7]. Also, the koff in assay [6] was 4.9e-05 s⁻¹; in assay [1], 0.000262 s⁻¹; in assay [7], 0.000926 s⁻¹. The association rate constant (kon) in assay [6] was 1.94e+06 M⁻¹ s⁻¹; in assay [1], 1.3e+06 M⁻¹ s⁻¹; in assay [7], 1.02e+06 M⁻¹ s⁻¹. The same molecule registered an EC50 in assay [2] of 430 pM. In assay [5], this molecule gave an IC50 of 600 pM.

B15: h9.1-70 IgG (antibody, V domains shown)
VH: EVQLVESGGGLVQPGGSLRLSCAASDSPRSGYYISWVRQAPGKGLEWVGFIRDKANGYTTEYNPSVKGRFTISADTSKNTAYLQMNSLRAEDTAVYYCAQVRRALDYWGQGTLVTVSS
VL: DIQMTQSPSSLSASVGDRVTITCKSSQSLLYSSNQNNYLAWYQQKPGKAPKLLIYWASIRDSGVPSRFSGSGSGTDFTLTISSLQPEDFATYYCQQYYTYPYTFGQGTKVEIKR
Turning to B15, the half-maximal effective concentration (EC50) in assay [2] turned out to be 330 pM. In assay [5], this molecule registered a half-maximal inhibitory concentration (IC50) of 820 pM.

B16: h9.1-73 IgG (antibody, V domains shown)
VH: EVQLVESGGGLVQPGGSLRLSCAASGLPMAGFYTSWVRQAPGKGLEWVGFIRDKANGYTTEYNPSVKGRFTISADTSKNTAYLQMNSLRAEDTAVYYCAQVRRALDYWGQGTLVTVSS
VL: DIQMTQSPSSLSASVGDRVTITCKSSQSLLYSSNQNNYLAWYQQKPGKAPKLLIYWAQHLDSGVPSRFSGSGSGTDFTLTISSLQPEDFATYYCQQYYTYPYTFGQGTKVEIKR
On to B16, for which a half-maximal response in assay [2] (EC50) required 790 pM. Besides, the IC50 in assay [5] was determined as 1780 pM.
